Data taken from article PMC10682670.

What was measured:
[1] = biological target: COMP-Ang1 fusion protein (encoded by mRNA-76), secreted by HeLa cells (not stated ('humanized' fusion protein) | human); experiment: non-reducing PAGE with immunoblot; concentrated serum-free supernatant of mRNA-transfected HeLa cells, non-reducing PAGE, Western blot with Ang1-specific antibody
[2] = biological target: CMP-Ang1 fusion protein (encoded by mRNA-59) (human); experiment: as above

Row | Substance | stoichiometry N [1] | stoichiometry N [2]
1 | COMP-Ang1 fusion protein (encoded by mRNA-76), secreted by HeLa cells (ligand) | 5 | 
2 | CMP-Ang1 fusion protein (encoded by mRNA-59) (ligand) |  | 2
